Read-outs that look alike come from different tables or passages of the source.
Tests used:
Assay in all cases: ELISA
[1] = target: T1, denatured human collagen type IV (UniProt P02462 173-1669; P08572 184-1712)
[2] = target: T2, denatured human collagen I (UniProt P02452 162-1218; P08123 80-1119)
[3] = target: T2, denatured human collagen I; remark: listed apart in the source
[4] = target: T1, denatured human collagen type IV; remark: listed apart in the source

T2 sequence (P02452 162-1218 A1075T, chain 1 of 2): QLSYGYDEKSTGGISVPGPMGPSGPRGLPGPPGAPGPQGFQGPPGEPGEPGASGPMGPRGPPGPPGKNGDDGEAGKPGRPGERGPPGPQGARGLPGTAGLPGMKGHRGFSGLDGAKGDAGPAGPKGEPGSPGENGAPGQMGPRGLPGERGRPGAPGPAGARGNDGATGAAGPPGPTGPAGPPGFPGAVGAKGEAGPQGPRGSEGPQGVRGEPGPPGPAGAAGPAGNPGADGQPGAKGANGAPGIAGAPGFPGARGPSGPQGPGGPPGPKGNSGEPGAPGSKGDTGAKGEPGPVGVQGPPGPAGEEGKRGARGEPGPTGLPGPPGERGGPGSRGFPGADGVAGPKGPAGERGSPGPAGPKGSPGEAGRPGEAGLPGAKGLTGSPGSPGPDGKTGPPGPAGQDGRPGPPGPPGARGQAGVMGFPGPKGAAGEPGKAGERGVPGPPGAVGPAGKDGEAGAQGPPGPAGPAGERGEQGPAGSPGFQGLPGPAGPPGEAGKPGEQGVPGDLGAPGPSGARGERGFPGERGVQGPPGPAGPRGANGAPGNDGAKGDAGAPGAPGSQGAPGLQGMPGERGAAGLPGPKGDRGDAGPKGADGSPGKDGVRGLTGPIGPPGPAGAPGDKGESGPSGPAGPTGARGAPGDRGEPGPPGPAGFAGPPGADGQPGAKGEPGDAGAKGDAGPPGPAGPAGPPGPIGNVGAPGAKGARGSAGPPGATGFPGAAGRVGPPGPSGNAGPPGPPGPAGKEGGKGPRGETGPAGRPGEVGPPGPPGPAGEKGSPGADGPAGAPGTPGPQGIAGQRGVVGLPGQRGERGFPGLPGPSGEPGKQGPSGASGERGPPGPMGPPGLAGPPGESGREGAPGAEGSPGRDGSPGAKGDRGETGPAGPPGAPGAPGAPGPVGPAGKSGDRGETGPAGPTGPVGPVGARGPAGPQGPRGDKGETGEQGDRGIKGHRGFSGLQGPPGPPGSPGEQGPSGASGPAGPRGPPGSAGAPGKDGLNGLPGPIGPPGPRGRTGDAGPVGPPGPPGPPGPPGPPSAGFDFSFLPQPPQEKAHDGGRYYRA
T2 sequence (P08123 80-1119, chain 2 of 2): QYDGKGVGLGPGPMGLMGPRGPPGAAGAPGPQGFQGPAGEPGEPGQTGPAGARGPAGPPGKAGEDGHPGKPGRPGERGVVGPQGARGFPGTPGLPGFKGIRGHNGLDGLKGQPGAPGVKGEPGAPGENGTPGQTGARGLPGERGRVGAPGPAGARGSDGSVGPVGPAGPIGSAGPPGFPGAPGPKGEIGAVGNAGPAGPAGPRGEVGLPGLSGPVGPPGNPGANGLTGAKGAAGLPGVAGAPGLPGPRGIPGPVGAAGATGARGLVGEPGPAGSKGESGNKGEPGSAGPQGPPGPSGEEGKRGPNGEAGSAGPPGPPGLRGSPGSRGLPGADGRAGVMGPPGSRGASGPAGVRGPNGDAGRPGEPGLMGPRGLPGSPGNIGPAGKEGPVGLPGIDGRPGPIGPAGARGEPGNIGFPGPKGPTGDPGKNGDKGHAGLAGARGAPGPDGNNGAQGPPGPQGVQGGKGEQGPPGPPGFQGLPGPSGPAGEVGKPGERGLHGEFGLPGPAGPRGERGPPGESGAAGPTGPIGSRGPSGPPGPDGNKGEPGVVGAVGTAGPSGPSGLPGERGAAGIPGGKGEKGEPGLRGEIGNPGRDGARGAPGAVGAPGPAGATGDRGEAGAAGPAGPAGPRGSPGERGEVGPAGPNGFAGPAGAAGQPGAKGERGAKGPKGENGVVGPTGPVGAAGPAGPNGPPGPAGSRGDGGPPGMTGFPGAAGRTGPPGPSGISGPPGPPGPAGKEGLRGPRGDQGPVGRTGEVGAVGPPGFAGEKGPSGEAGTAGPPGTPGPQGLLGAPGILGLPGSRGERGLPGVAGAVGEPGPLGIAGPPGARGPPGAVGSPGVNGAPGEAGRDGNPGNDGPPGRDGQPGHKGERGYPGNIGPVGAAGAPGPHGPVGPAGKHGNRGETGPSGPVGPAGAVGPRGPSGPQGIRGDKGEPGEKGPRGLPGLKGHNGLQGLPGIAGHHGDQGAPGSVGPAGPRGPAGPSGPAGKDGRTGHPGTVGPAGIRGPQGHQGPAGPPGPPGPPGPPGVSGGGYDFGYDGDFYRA
T1 sequence (P02462 173-1669, chain 1 of 2): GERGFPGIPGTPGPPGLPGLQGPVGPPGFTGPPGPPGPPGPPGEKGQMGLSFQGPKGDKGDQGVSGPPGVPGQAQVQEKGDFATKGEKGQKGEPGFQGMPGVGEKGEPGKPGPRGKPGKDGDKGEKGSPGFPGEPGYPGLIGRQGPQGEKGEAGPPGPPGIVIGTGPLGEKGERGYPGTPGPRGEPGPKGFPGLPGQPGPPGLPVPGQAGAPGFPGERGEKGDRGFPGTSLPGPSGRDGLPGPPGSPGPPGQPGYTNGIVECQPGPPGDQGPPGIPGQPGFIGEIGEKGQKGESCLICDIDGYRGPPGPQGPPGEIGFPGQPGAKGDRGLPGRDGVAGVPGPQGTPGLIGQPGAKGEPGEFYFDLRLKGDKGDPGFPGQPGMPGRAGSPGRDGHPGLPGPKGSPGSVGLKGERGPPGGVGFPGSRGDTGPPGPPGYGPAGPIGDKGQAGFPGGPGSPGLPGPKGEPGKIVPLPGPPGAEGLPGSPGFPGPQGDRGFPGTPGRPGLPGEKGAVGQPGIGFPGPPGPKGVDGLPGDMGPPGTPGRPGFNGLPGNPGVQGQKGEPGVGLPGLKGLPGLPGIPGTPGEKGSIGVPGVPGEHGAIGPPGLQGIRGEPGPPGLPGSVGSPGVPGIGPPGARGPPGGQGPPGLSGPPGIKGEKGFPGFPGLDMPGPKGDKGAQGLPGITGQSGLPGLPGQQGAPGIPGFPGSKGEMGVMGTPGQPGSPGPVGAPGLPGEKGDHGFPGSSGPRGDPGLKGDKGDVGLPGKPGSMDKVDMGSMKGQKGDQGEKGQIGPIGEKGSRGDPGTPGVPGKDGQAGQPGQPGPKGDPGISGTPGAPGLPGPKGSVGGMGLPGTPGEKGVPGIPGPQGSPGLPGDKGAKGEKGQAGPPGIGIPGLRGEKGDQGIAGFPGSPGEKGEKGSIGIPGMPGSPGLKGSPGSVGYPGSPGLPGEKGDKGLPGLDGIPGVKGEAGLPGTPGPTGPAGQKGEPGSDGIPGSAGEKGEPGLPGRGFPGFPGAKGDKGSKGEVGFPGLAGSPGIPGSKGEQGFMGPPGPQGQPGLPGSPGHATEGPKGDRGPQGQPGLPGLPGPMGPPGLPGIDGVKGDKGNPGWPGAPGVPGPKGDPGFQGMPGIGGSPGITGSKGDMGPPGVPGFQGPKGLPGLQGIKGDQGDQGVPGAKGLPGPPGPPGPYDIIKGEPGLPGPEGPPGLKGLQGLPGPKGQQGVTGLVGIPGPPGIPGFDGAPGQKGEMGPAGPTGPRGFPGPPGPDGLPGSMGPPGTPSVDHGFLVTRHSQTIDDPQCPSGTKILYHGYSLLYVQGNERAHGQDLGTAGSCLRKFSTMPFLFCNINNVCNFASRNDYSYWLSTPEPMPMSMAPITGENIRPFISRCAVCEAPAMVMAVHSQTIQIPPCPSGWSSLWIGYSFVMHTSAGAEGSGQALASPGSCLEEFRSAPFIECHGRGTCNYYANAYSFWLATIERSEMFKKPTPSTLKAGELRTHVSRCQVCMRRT
T1 sequence (P08572 184-1712, chain 2 of 2): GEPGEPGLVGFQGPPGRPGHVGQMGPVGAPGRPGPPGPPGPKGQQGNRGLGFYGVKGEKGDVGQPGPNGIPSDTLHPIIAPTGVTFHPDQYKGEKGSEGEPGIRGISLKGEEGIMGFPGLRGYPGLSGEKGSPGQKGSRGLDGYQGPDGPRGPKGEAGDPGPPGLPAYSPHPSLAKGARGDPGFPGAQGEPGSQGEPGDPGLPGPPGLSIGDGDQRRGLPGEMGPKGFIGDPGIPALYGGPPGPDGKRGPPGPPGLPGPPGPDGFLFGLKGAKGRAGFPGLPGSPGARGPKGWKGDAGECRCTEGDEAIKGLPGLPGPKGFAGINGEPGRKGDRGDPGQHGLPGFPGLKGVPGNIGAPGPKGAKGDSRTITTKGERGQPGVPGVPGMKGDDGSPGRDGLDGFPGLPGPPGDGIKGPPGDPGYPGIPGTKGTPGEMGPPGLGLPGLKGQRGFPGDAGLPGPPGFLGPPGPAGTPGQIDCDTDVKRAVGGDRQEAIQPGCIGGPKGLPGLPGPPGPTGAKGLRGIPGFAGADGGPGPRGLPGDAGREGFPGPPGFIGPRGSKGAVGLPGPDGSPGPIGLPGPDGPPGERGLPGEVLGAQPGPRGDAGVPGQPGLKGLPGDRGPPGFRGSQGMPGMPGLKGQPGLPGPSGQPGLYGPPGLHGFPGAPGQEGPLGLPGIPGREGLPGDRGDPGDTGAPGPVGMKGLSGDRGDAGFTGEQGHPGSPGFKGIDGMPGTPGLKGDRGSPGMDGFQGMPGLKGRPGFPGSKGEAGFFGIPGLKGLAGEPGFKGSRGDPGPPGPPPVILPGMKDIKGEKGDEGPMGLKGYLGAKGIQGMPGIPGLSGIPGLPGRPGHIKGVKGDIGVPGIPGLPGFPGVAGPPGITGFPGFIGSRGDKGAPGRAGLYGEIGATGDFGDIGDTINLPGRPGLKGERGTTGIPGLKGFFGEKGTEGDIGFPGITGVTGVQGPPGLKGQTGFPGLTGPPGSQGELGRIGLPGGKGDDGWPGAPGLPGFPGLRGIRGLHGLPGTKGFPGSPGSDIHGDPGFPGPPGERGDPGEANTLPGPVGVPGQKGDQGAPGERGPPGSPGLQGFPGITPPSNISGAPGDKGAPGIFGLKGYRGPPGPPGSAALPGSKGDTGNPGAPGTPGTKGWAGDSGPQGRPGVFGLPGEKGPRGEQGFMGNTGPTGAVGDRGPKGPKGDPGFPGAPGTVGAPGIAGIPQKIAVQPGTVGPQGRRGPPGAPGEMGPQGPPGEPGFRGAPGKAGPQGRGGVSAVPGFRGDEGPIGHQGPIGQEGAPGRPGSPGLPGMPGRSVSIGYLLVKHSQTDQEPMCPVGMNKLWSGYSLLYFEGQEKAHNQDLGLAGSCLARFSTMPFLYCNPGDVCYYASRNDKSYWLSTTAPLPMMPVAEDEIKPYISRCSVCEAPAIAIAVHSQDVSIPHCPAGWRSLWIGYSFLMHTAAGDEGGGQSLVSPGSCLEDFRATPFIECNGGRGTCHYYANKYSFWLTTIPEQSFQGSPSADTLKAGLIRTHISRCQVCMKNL

EC50 [1] [nM] | EC50 [2] [nM] | EC50 [3] [nM] | EC50 [4] [nM] | Binder
12 | 36.2 | – | – | P27562716 (antibody, V domains shown) VH: EVQLVESGGGLVQPGGSLRLSCAASGFTFSTPGMGVWWVRQAPGKGLEWLADIWWDDNKYTNPSLKSRFTISRDNAKNSLYLQMNSLRAEDTAVYYCARRANYGNPYYAQDYWGQGTTVTVSS VL: DIVMTQTPLSLPVTPGEPASISCRSSQSIVSSWGNTYLEWYLQKPGQSPQLLIYKVSNRFSGVPDRFSGSGSGTDFTLKISRVEAEDVGVYYCFQGSHVPWTFGQGTKVEIKR
9.91 | – | 11.9 | – | P27652716 (antibody, V domains shown) VH: QVTLKESGPALVKPTQTLTLTCTFSGFSLSTPGMGVWWIRQPPGEGLEWLADIWWDDNKYTNPSLKSRLTISKDTSKNQVVLTMTNMDPVDTATYYCARRANYGNPYYAQDYWGQGTTVTVSS VL: DIVMTQTPLSLPVTPGEPASISCRSSQSIVSSWGNTYLEWYLQKPGQSPQLLIYKVSNRFSGVPDRFSGSGSGTDFTLKISRVEAEDVGVYYCFQGSHVPWTFGQGTKVEIKR
32.6 | 8570 | – | – | P27122797 (antibody, V domains shown) VH: QVTLKESGPALVKPTQTLTLTCTFSGFSLSTSGMGVGWIRQPPGKALEWLADIWWDDNKYANPSLKSRLTISKDTSKNQVVLTMTNMDPVDTATYYCARRANYGNPYYAQDYWGQGTTVTVSS VL: DIVMTQTPLSLPVTPGEPASISCRSSQSIVHSSGNTYLEWYLQKPGQSPQLLIYKVSNRFSGVPDRFSGSGSGTDFTLKISRVEAEDVGVYYCFQGSHVPWTFGQGTKVEIKR
16.1 | 22.1 | – | – | P27522716 (antibody, V domains shown) VH: EVQLVESGGGLVQPGGSLRLSCAASGFSFSTPGMGVWWVRQAPGKGLEWVADIWWDDNKYTNPSLKSRFTISRDNAKNSLYLQMNSLRAEDTAVYYCARRANYGNPYYAQDYWGQGTTVTVSS VL: DIVMTQTPLSLPVTPGEPASISCRSSQSIVSSWGNTYLEWYLQKPGQSPQLLIYKVSNRFSGVPDRFSGSGSGTDFTLKISRVEAEDVGVYYCFQGSHVPWTFGQGTKVEIKR
12.2 | 36.6 | – | – | P27552716 (antibody, V domains shown) VH: EVQLVESGGGLVQPGGSLRLSCAASGFTFSTPGMGVWWIRQAPGKGLEWVADIWWDDNKYTNPSLKSRFTISRDNAKNSLYLQMNSLRAEDTAVYYCARRANYGNPYYAQDYWGQGTTVTVSS VL: DIVMTQTPLSLPVTPGEPASISCRSSQSIVSSWGNTYLEWYLQKPGQSPQLLIYKVSNRFSGVPDRFSGSGSGTDFTLKISRVEAEDVGVYYCFQGSHVPWTFGQGTKVEIKR
6.37 | 14.8 | – | – | P27542716 (antibody, V domains shown) VH: EVQLVESGGGLVQPGGSLRLSCAASGFSLSTPGMGVWWVRQAPGKGLEWVADIWWDDNKYTNPSLKSRFTISRDNAKNSLYLQMNSLRAEDTAVYYCARRANYGNPYYAQDYWGQGTTVTVSS VL: DIVMTQTPLSLPVTPGEPASISCRSSQSIVSSWGNTYLEWYLQKPGQSPQLLIYKVSNRFSGVPDRFSGSGSGTDFTLKISRVEAEDVGVYYCFQGSHVPWTFGQGTKVEIKR
18.8 | 20800 | – | – | P27572716 (antibody, V domains shown) VH: EVQLVESGGGLVQPGGSLRLSCAASGFTFSTPGMGVWWVRQAPGKGLEWVADIWWDDNKYTNPSLKSRLTISRDNAKNSLYLQMNSLRAEDTAVYYCARRANYGNPYYAQDYWGQGTTVTVSS VL: DIVMTQTPLSLPVTPGEPASISCRSSQSIVSSWGNTYLEWYLQKPGQSPQLLIYKVSNRFSGVPDRFSGSGSGTDFTLKISRVEAEDVGVYYCFQGSHVPWTFGQGTKVEIKR
9.01 | 18.3 | – | – | P27532716 (antibody, V domains shown) VH: EVQLVESGGGLVQPGGSLRLSCAASGFTLSTPGMGVWWVRQAPGKGLEWVADIWWDDNKYTNPSLKSRFTISRDNAKNSLYLQMNSLRAEDTAVYYCARRANYGNPYYAQDYWGQGTTVTVSS VL: DIVMTQTPLSLPVTPGEPASISCRSSQSIVSSWGNTYLEWYLQKPGQSPQLLIYKVSNRFSGVPDRFSGSGSGTDFTLKISRVEAEDVGVYYCFQGSHVPWTFGQGTKVEIKR
4.01 | – | 3.73 | – | P27622716 (antibody) chain 1: not shown chain 2: DIVMTQTPLSLPVTPGEPASISCRSSQSIVSSWGNTYLEWYLQKPGQSPQLLIYKVSNRFSGVPDRFSGSGSGTDFTLKISRVEAEDVGVYYCFQGSHVPWTFGQGTKVEIKRTVAAPSVFIFPPSDEQLKSGTASVVCLLNNFYPREAKVQWKVDNALQSGNSQESVTEQDSKDSTYSLSSTLTLSKADYEKHKVYACEVTHQGLSSPVTKSFNRGEC
– | – | – | 6.48 | P27962797 (antibody) chain 1: not shown chain 2: DIVMTQTPLSLPVTPGEPASISCRSSQSIVHSSGNTYLEWYLQKPGQSPQLLIYKVSNRFSGVPDRFSGSGSGTDFTLKISRVEAEDVGVYYCFQGSHVPWTFGQGTKVEIKRTVAAPSVFIFPPSDEQLKSGTASVVCLLNNFYPREAKVQWKVDNALQSGNSQESVTEQDSKDSTYSLSSTLTLSKADYEKHKVYACEVTHQGLSSPVTKSFNRGEC
– | – | – | 3.34 | P27202716 (antibody) chain 1: not shown chain 2: DIVMTQTPLSLPVTPGEPASISCRSSQSIVSSWGNTYLEWYLQKPGQSPQLLIYKVSNRFSGVPDRFSGSGSGTDFTLKISRVEAEDVGVYYCFQGSHVPWTFGQGTKVEIKRTVAAPSVFIFPPSDEQLKSGTASVVCLLNNFYPREAKVQWKVDNALQSGNSQESVTEQDSKDSTYSLSSTLTLSKADYEKHKVYACEVTHQGLSSPVTKSFNRGEC
– | – | – | 2.63 | P28612716 (antibody) chain 1: not shown chain 2: DIVMTQTPLSLPVTPGEPASISCRSSQSIVSSWGNTYLEWYLQKPGQSPQLLIYKVSNRFSGVPDRFSGSGSGTDFTLKISRVEAEDVGVYYCFQGSHVPWTFGQGTKVEIKRTVAAPSVFIFPPSDEQLKSGTASVVCLLNNFYPREAKVQWKVDNALQSGNSQESVTEQDSKDSTYSLSSTLTLSKADYEKHKVYACEVTHQGLSSPVTKSFNRGEC
10.8 | 27.2 | – | – | P27122798 (antibody) chain 1: not shown chain 2: DIVMTQTPLSLPVTPGEPASISCRSSQSIVHSNANTYLEWYLQKPGQSPQLLIYKVSNRFSGVPDRFSGSGSGTDFTLKISRVEAEDVGVYYCFQGSHVPWTFGQGTKVEIKRTVAAPSVFIFPPSDEQLKSGTASVVCLLNNFYPREAKVQWKVDNALQSGNSQESVTEQDSKDSTYSLSSTLTLSKADYEKHKVYACEVTHQGLSSPVTKSFNRGEC
– | – | – | 30.4 | P27202714 (antibody) chain 1: not shown chain 2: DIVMTQTPLSLPVTPGEPASISCRSSQSIVHSQGNTYLEWYLQKPGQSPQLLIYKVSNRFSGVPDRFSGSGSGTDFTLKISRVEAEDVGVYYCFQGSHVPWTFGQGTKVEIKRTVAAPSVFIFPPSDEQLKSGTASVVCLLNNFYPREAKVQWKVDNALQSGNSQESVTEQDSKDSTYSLSSTLTLSKADYEKHKVYACEVTHQGLSSPVTKSFNRGEC
– | – | – | 2.53 | P27962798 (antibody) chain 1: not shown chain 2: DIVMTQTPLSLPVTPGEPASISCRSSQSIVHSNANTYLEWYLQKPGQSPQLLIYKVSNRFSGVPDRFSGSGSGTDFTLKISRVEAEDVGVYYCFQGSHVPWTFGQGTKVEIKRTVAAPSVFIFPPSDEQLKSGTASVVCLLNNFYPREAKVQWKVDNALQSGNSQESVTEQDSKDSTYSLSSTLTLSKADYEKHKVYACEVTHQGLSSPVTKSFNRGEC
9.3 | 26 | – | – | P27152797 (antibody) chain 1: not shown chain 2: DIVMTQTPLSLPVTPGEPASISCRSSQSIVHSSGNTYLEWYLQKPGQSPQLLIYKVSNRFSGVPDRFSGSGSGTDFTLKISRVEAEDVGVYYCFQGSHVPWTFGQGTKVEIKRTVAAPSVFIFPPSDEQLKSGTASVVCLLNNFYPREAKVQWKVDNALQSGNSQESVTEQDSKDSTYSLSSTLTLSKADYEKHKVYACEVTHQGLSSPVTKSFNRGEC
– | – | – | 7.41 | P27202713 (antibody) chain 1: not shown chain 2: DIVMTQTPLSLPVTPGEPASISCRSSQSIVHSNGNTYLEWYLQKPGQSPQLLIYKVSNRFSGVPDRFSGSGSGTDFTLKISRVEAEDVGVYYCFQGSHVPWTFGQGTKVEIKRTVAAPSVFIFPPSDEQLKSGTASVVCLLNNFYPREAKVQWKVDNALQSGNSQESVTEQDSKDSTYSLSSTLTLSKADYEKHKVYACEVTHQGLSSPVTKSFNRGEC
– | – | – | 18.4 | P27952798 (antibody) chain 1: not shown chain 2: DIVMTQTPLSLPVTPGEPASISCRSSQSIVHSNANTYLEWYLQKPGQSPQLLIYKVSNRFSGVPDRFSGSGSGTDFTLKISRVEAEDVGVYYCFQGSHVPWTFGQGTKVEIKRTVAAPSVFIFPPSDEQLKSGTASVVCLLNNFYPREAKVQWKVDNALQSGNSQESVTEQDSKDSTYSLSSTLTLSKADYEKHKVYACEVTHQGLSSPVTKSFNRGEC
– | – | – | 57.4 | P27902713 (antibody) chain 1: not shown chain 2: DIVMTQTPLSLPVTPGEPASISCRSSQSIVHSNGNTYLEWYLQKPGQSPQLLIYKVSNRFSGVPDRFSGSGSGTDFTLKISRVEAEDVGVYYCFQGSHVPWTFGQGTKVEIKRTVAAPSVFIFPPSDEQLKSGTASVVCLLNNFYPREAKVQWKVDNALQSGNSQESVTEQDSKDSTYSLSSTLTLSKADYEKHKVYACEVTHQGLSSPVTKSFNRGEC
– | – | – | 4.5 | P27922716 (antibody) chain 1: not shown chain 2: DIVMTQTPLSLPVTPGEPASISCRSSQSIVSSWGNTYLEWYLQKPGQSPQLLIYKVSNRFSGVPDRFSGSGSGTDFTLKISRVEAEDVGVYYCFQGSHVPWTFGQGTKVEIKRTVAAPSVFIFPPSDEQLKSGTASVVCLLNNFYPREAKVQWKVDNALQSGNSQESVTEQDSKDSTYSLSSTLTLSKADYEKHKVYACEVTHQGLSSPVTKSFNRGEC
– | – | – | 4.97 | P27912716 (antibody) chain 1: not shown chain 2: DIVMTQTPLSLPVTPGEPASISCRSSQSIVSSWGNTYLEWYLQKPGQSPQLLIYKVSNRFSGVPDRFSGSGSGTDFTLKISRVEAEDVGVYYCFQGSHVPWTFGQGTKVEIKRTVAAPSVFIFPPSDEQLKSGTASVVCLLNNFYPREAKVQWKVDNALQSGNSQESVTEQDSKDSTYSLSSTLTLSKADYEKHKVYACEVTHQGLSSPVTKSFNRGEC

Reference: US20230257453A1 (published 2023)
